Results reported in US20120128635.

What was measured:
[1] = test system: ZFN SBS#9802 (N2 pair) (synthetic construct); assay: cell_activity; conditions: Cel-I assay in K562 day 3, as pair with SBS#11004; 34-47% in LP mouse liver in vivo (p174)
[2] = test system: ZFN SBS#11004 (N2 pair) (synthetic construct); assay: cell_activity; conditions: Cel-I assay in K562 day 3, as pair with SBS#9802; 34-47% in LP mouse liver in vivo (p174)

Sequence	activity (% alleles cleaved) [1]	activity (% alleles cleaved) [2]
TGACACAGTACCTGGCACCATAGTTGTA (double strand) [hF9 intron 1 target of SBS#9802]	30	–
GTACTAGGGGTATGGGGATAAACCAGAC (double strand) [hF9 intron 1 target of SBS#11004]	–	30
